Source: IntAct's records for PubMed 25960410

B1: Mortality factor 4-like protein 1 (Homo sapiens), Q9UBU8-2 (parent)
chain: MAPKQDPKPKFQEGERVLCFHGPLLYEAKCVKVAIKDKQVKYFIHYSGWNKNWDEWVPESRVLKYVDTNLQKQRELQKANQEQYAEGKMRGAAPGKKTSGLQQKNVEVKTKKNKQKTPGNGDGGSTSETPQPPRKKRARVDPTVENEETFMNRVEVKVKIPEELKPWLVDDWDLITRQKQLFYLPAKKNVDSILEDYANYKKSRGNTDNKEYAVNEVVAGIKEYFNVMLGTQLLYKFERPQYAEILADHPDAPMSQVYGAPHLLRLFVRIGAMLAYTPLDEKSLALLLNYLHDFLKYLAKNSATLFSASDYEVAPPEYHRKAV

Variants of: B1
Conditions: with mrgbp_human MRGBP
With L168A the “effect of a mutation on the interaction” value was “decreasing interaction strength”. W172A was tested, and the “effect of a mutation on the interaction” value was “decreasing interaction strength”. For L287A, the “effect of a mutation on the interaction” value was “decreasing interaction strength”.
